We go through one molecule from patent publication US20210087244A1 (UNIVERSITY OF BRITISH COLUMBIA, published 2021).

Common to all, as to assay: SPR direct binding (MASS-1), hybridoma supernatant over immobilized antigen
For test [1], the target named is T1, cyclo(CGHHQKG)-conjugated-BSA (SEQ ID NO: 2) (bovine, UniProt P02769 25-607, head-to-tail cyclized (amide bond between N- and C-terminus); conjugated to SMCC-activated BSA).
T1 construct: also called Cyclic-Peptide; cyclic peptide-BSA
As to the method: (§1) All SPR measurements were performed using a Molecular Affinity Screening System (MASS-1) (Sierra Sensors GmbH, Hamburg, Germany), an analytical biosensor that employs high intensity laser light and high speed optical scanning to monitor binding interactions in real time. The primary screening of tissue culture supernatants was performed using an SPR direct binding assay, whereby BSA-conjugated peptides, A-beta42 Monomer and A-beta42 Oligomer are covalently immobilized on individual flow cells of a High Amine Capacity (HAC) sensorchip (Sierra Sensors GmbH, Hamburg, Germany) and antibodies flowed over the surface. Protein G purified mAbs were analyzed in a secondary screen using an SPR indirect (capture) binding assay, whereby the antibodies were captured on a protein A-derivatized sensorchip (XanTec Bioanalytics GmbH, Duesseldorf, Germany) and A-beta40 Monomer, A-beta42 Oligomer, soluble brain extracts and cerebrospinal fluid flowed over the surface. The specificity of the antibodies was verified in an SPR direct binding assay by covalently immobilizing A-beta42 Monomer and A-beta42 Oligomer on individual flow cells of a HAC sensorchip and flowing purified mAbs.
(§2) Clones were retested for their ability to bind cyclic peptide, linear peptide, A-beta 1-42 monomer and A-beta 1-42 oligomers prepared as described above. Binding assays were performed using SPR as described above (Direct binding assays).

Test [2] has as its target T2, linear CGHHQKG-conjugated-BSA (SEQ ID NO: 2) (bovine, UniProt P02769 25-607, conjugated to BSA).
T2 construct: also called Linear-Peptide; linear peptide-BSA
As to the method:
as §1, §2

The target in the next test is T3, A-beta42 Oligomer (human).
T3 construct: also called A β 42 Oligomer; A-beta 1-42 oligomers
T3 sequence (peptide, as listed by the source): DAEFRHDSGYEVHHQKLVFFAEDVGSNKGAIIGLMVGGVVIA
As to the method: as §1, §2

T2 sequence (P02769 25-607 limits assumed): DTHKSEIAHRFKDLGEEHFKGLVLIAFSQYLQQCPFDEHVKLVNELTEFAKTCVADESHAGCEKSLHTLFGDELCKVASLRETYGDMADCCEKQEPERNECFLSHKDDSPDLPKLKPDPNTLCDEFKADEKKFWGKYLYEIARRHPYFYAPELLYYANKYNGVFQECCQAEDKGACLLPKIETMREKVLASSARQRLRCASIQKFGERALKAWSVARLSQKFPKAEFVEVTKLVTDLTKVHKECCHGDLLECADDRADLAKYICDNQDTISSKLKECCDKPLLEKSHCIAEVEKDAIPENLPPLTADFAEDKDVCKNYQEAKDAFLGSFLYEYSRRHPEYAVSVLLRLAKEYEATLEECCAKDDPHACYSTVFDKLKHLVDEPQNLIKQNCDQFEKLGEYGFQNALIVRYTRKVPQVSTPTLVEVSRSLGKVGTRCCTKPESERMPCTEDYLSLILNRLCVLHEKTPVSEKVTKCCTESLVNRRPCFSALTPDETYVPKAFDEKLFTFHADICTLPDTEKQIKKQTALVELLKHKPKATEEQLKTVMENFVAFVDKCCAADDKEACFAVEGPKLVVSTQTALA
T1 sequence (P02769 25-607 limits assumed): as above

B1: 301-12G11 (17) (antibody, V domains shown)
VH: QVQLQQPGAELVKPGASVKMSCKASGYSFTSYWINWVKQRPGQGLEWIGDVHPGRGVSTYNAKFKSKATLTLDTSSSTAYMQLSSLTSEDSAVYYCSRSHGNTYWFFDVWGAGTTVTVSS
VL: DVLMTQTPLSLPVSLGDQASISCRSSQSIVHSNGNTYLEWYLQKPGQSPKLLIYKVSNRFSGVPDRFSGSGSGTDFTLKISRVEAEDLGVYYCFQGSHVPFTFGSGTKLEIKR
notes: they begin with a leader (MGWSC.../MKLPV...) and end with a few constant-region residues
In the case of B1, the “response units (RU)” value in test [1] is 698 RU; in test [2] it was 1150 RU; with A-beta42 Oligomer it was 66.8 RU.
